Results from article PMC7844235, “Redirecting substrate regioselectivity using engineered ΔN123-GBD-CD2 branching sucrases for the production of pentasaccharide repeating units of S. flexneri 3a, 4a and 4b haptens” (Scientific Reports, 2021).

Substrate: OC[C@H]1O[C@@](CO)(O[C@H]2O[C@H](CO)[C@@H](O)[C@H](O)[C@H]2O)[C@@H](O)[C@@H]1O
Assay: sucrose hydrolysis, HPLC-CAD, Michaelis-Menten fit
Type: biochemical, Leuconostoc mesenteroides
Details: sucrose as sole substrate, 50 mM sodium acetate pH 5.1, 30 °C
Description: sucrose hydrolysis, HPLC-CAD, Michaelis-Menten fit on ΔN123-GBD-CD2 branching sucrase

B1: ΔN123-GBD-CD2 branching sucrase (Leuconostoc mesenteroides) (protein)
chain: QAGHYITKNGNDWQYDTNGELAKGLRQDSNGKLRYFDLTTGIQAKGQFVTIGQETYYFSKDHGDAQLLPMVTEGHYGTITLKQGQDTKTAWVYRDQNNTILKGLQNINGTLQFFDPYTGEQLKGGVAKYDDKLFYFESGKGNLVSTVAGDYQDGHYISQDGQTRYADKQNQLVKGLVTVNGALQYFDNATGNQIKNQQVIVDGKTYYFDDKGNGEYLFTNTLDMSTNAFSTKNVAFNHDSSSFDHTVDGFLTADTWYRPKSILANGTTWRDSTDKDMRPLITVWWPNKNVQVNYLNFMKANGLLTTAAQYTLHSDQYDLNQAAQDVQVAIERRIASEHGTDWLQKLLFESQNNNPSFVKQQFIWNKDSEYHGGGDAWFQGGYLKYGNNPLTPTTNSDYRQPGNAFDFLLANDVDNSNPVVQAENLNWLHYLMNFGTITAGQDDANFDSIRIDAVDFIHNDTIQRTYDYLRDAYQVQQSEAKANQHISLVEAGLDAGTSTIHNDALIESNLREAATLSLTNEPGKNKPLTNMLQDVDGGTLITDHTQNSTENQATPNYSIIHAHDKGVQEKVGAAITDATGADWTNFTDEQLKAGLELFYKDQRATNKKYNSYNIPSIYALMLTNKDTVPRMYYGDMYQDDGQYMANKSIYYDALVSLMTARKSYVSGGQTMSVDNHGLLKSVRFGKDAMTANDLGTSATRTEGLGVIIGNDPKLQLNDSDKVTLDMGAAHKNQKYRAVILTTRDGLATFNSDQAPTAWTNDQGTLTFSNQEINGQDNTQIRGVANPQVSGYLAVWVPVGASDNQDARTAATTTENHDGKVLHSNAALDSNLIYEGFSNFQPKATTHDELTNVVIAKNADVFNNWGITSFEMAPQYRSSGDHTFLDSTIDNGYAFTDRYDLGFNTPTKYGTDGDLRATIQALHHANMQVMADVVDNQVYNLPGKEVVSATRAGVYGNDDATGFGTQLYVTNSVGGGQYQEKYAGQYLEALKAKYPDLFEGKAYDYWYKNYANDGSNPYYTLSHGDRESIPADVAIKQWSAKYMNGTNVLGNGMGYVLKDWHNGQYFKLDGDKSTLPQI
Q: How did the Km turn out when B1 was run?
A: The Km was 30.5 ± 7.2 mM.

Q: What about the Vmax of the same protein?
A: The Vmax was 77.5 µmol/min/mg.

Q: What about the kcat of the same protein?
A: The kcat was 162 ± 12.7 s⁻¹.

B2: ΔN123-GBD-CD2 branching sucrase (Leuconostoc mesenteroides; F2136L/W2135S) (protein)
chain: QAGHYITKNGNDWQYDTNGELAKGLRQDSNGKLRYFDLTTGIQAKGQFVTIGQETYYFSKDHGDAQLLPMVTEGHYGTITLKQGQDTKTAWVYRDQNNTILKGLQNINGTLQFFDPYTGEQLKGGVAKYDDKLFYFESGKGNLVSTVAGDYQDGHYISQDGQTRYADKQNQLVKGLVTVNGALQYFDNATGNQIKNQQVIVDGKTYYFDDKGNGEYLFTNTLDMSTNAFSTKNVAFNHDSSSFDHTVDGFLTADTWYRPKSILANGTTWRDSTDKDMRPLITVWWPNKNVQVNYLNFMKANGLLTTAAQYTLHSDQYDLNQAAQDVQVAIERRIASEHGTDWLQKLLFESQNNNPSFVKQQFIWNKDSEYHGGGDASLQGGYLKYGNNPLTPTTNSDYRQPGNAFDFLLANDVDNSNPVVQAENLNWLHYLMNFGTITAGQDDANFDSIRIDAVDFIHNDTIQRTYDYLRDAYQVQQSEAKANQHISLVEAGLDAGTSTIHNDALIESNLREAATLSLTNEPGKNKPLTNMLQDVDGGTLITDHTQNSTENQATPNYSIIHAHDKGVQEKVGAAITDATGADWTNFTDEQLKAGLELFYKDQRATNKKYNSYNIPSIYALMLTNKDTVPRMYYGDMYQDDGQYMANKSIYYDALVSLMTARKSYVSGGQTMSVDNHGLLKSVRFGKDAMTANDLGTSATRTEGLGVIIGNDPKLQLNDSDKVTLDMGAAHKNQKYRAVILTTRDGLATFNSDQAPTAWTNDQGTLTFSNQEINGQDNTQIRGVANPQVSGYLAVWVPVGASDNQDARTAATTTENHDGKVLHSNAALDSNLIYEGFSNFQPKATTHDELTNVVIAKNADVFNNWGITSFEMAPQYRSSGDHTFLDSTIDNGYAFTDRYDLGFNTPTKYGTDGDLRATIQALHHANMQVMADVVDNQVYNLPGKEVVSATRAGVYGNDDATGFGTQLYVTNSVGGGQYQEKYAGQYLEALKAKYPDLFEGKAYDYWYKNYANDGSNPYYTLSHGDRESIPADVAIKQWSAKYMNGTNVLGNGMGYVLKDWHNGQYFKLDGDKSTLPQI
Q: B2 was tested. Which Km did it give?
A: The Km was 8.8 ± 1.0 mM.

Q: What about the Vmax of the same protein?
A: The Vmax was 17.7 µmol/min/mg.

Q: And the kcat?
A: Its kcat is 36.9 ± 0.9 s⁻¹.

B3: ΔN123-GBD-CD2 branching sucrase (Leuconostoc mesenteroides; F2163G) (protein)
chain: QAGHYITKNGNDWQYDTNGELAKGLRQDSNGKLRYFDLTTGIQAKGQFVTIGQETYYFSKDHGDAQLLPMVTEGHYGTITLKQGQDTKTAWVYRDQNNTILKGLQNINGTLQFFDPYTGEQLKGGVAKYDDKLFYFESGKGNLVSTVAGDYQDGHYISQDGQTRYADKQNQLVKGLVTVNGALQYFDNATGNQIKNQQVIVDGKTYYFDDKGNGEYLFTNTLDMSTNAFSTKNVAFNHDSSSFDHTVDGFLTADTWYRPKSILANGTTWRDSTDKDMRPLITVWWPNKNVQVNYLNFMKANGLLTTAAQYTLHSDQYDLNQAAQDVQVAIERRIASEHGTDWLQKLLFESQNNNPSFVKQQFIWNKDSEYHGGGDAWFQGGYLKYGNNPLTPTTNSDYRQPGNAGDFLLANDVDNSNPVVQAENLNWLHYLMNFGTITAGQDDANFDSIRIDAVDFIHNDTIQRTYDYLRDAYQVQQSEAKANQHISLVEAGLDAGTSTIHNDALIESNLREAATLSLTNEPGKNKPLTNMLQDVDGGTLITDHTQNSTENQATPNYSIIHAHDKGVQEKVGAAITDATGADWTNFTDEQLKAGLELFYKDQRATNKKYNSYNIPSIYALMLTNKDTVPRMYYGDMYQDDGQYMANKSIYYDALVSLMTARKSYVSGGQTMSVDNHGLLKSVRFGKDAMTANDLGTSATRTEGLGVIIGNDPKLQLNDSDKVTLDMGAAHKNQKYRAVILTTRDGLATFNSDQAPTAWTNDQGTLTFSNQEINGQDNTQIRGVANPQVSGYLAVWVPVGASDNQDARTAATTTENHDGKVLHSNAALDSNLIYEGFSNFQPKATTHDELTNVVIAKNADVFNNWGITSFEMAPQYRSSGDHTFLDSTIDNGYAFTDRYDLGFNTPTKYGTDGDLRATIQALHHANMQVMADVVDNQVYNLPGKEVVSATRAGVYGNDDATGFGTQLYVTNSVGGGQYQEKYAGQYLEALKAKYPDLFEGKAYDYWYKNYANDGSNPYYTLSHGDRESIPADVAIKQWSAKYMNGTNVLGNGMGYVLKDWHNGQYFKLDGDKSTLPQI
Q: With B3 as the protein, how does the Km read?
A: The Km was 7.0 ± 1.2 mM.

Q: What about the Vmax of the same protein?
A: Its Vmax is 16.8 µmol/min/mg.

Q: What about the kcat of the same protein?
A: The kcat was 35.1 ± 0.9 s⁻¹.
